Measured values taken from patent publication US20230159649A1, “METHODS AND COMBINATIONS FOR DUAL TARGETING OF TNF FAMILY MEMBERS” (La Jolla Institute for Immunology, priority 2020, published 2023).
“Also recorded” adds a separate entry of the source.

Legend:
airways of naïve mice [1] = assay: Injection of recombinant LIGHT / TL1A into the airways of naïve mice: airway remodeling; type: in vivo, mouse; conditions: 10 μg intratracheally on two consecutive days, day 3
[2] = test system: human airway fibroblasts (HAF); assay: Human airway fibroblasts (HAF) stimulated with rLIGHT or rTL1A with or without TGF-β; type: cell-based
Description: FIG. 9A-FIG. 9D illustrate LIGHT and TL1A induce inflammatory and remodeling activity in human airway fibroblasts (HAF). HAF were stimulated with rLIGHT or rTL1A with or without TGF-β. (FIG. 9A) Proliferation (left, thymidine incorporation) or αSMA mRNA (right) induced by LIGHT, TGF-β or both. (FIG. 9B) mRNA for select genes induced by LIGHT. (FIG. 9C) Collagen 13 and periostin protein (IF stain; DAPI is used for […]) and mRNA induced by TL1A. (FIG. 9D) Proliferation (left, thymidine incorporation) and αSMA mRNA (right) induced by TL1A, TGF-β, or their combination. Data individual cultures or means of triplicates. mRNA either fold increase over unstimulated cells or relative to GAPDH.
The inventors compare rTL1A to rLIGHT, titrating each molecule (5-100 ng/ml, their optimal dose range, see (60, 69)). The inventors perform kinetic analyses over 3 days (e.g. 4, 24, 48, 72 hr) and compare data from 4-6 individual cell populations. The inventors initially gain data with normal HAF. […] The inventors additionally have shown that rTL1A can promote activities in HAF that might overlap with, but also be distinct from, LIGHT (FIGS. 9C and 9D).

[3] = test system: normal human epidermal keratinocytes; assay: Human epidermal keratinocytes stimulated with rLIGHT or rTL1A; type: cell-based; conditions: for NF-κB activation (p-p65/RelA): keratinocytes, 25 ng/ml rTL1A or PBS
Method: FIG. 2A-FIG. 2C illustrate LTβR, HVEM, and DR3 are co-expressed or active in lung epithelial cells and fibroblasts, and keratinocytes and dermal fibroblasts. Cultured normal human bronchial epithelial cells and lung fibroblasts, and epidermal keratinocytes and dermal fibroblasts, were stained for expression of (FIG. 2A) LTβR and HVEM, (FIG. 2B) DR3 (isotype controls, gray), or (FIG. 2C) p-p65/RelA NF-κB after culture with 25 ng/ml rTL1A or PBS. Data representative of 2-4 experiments each.
Experimental Design: 1.1. LIGHT and TL1A co-operate to promote hyperplasia and inflammatory features in human keratinocytes: Firstly, the inventors test how signaling from LIGHT and TL1A directly regulate keratinocytes in vitro. Studies are performed with titrated doses of rLIGHT or rTL1A (0.1-100 ng/ml) vs. PBS, added to normal human epidermal keratinocytes from a minimum of 4 donors (obtained from Lonza) with kinetic analyses, as described previously (7, 8). LIGHT and TL1A have maximal activity in the range 20-100 ng/ml, similar to IL-13 or IL-17. […] The inventors control for specificity with siRNA knockdown of DR3, and then determine synergistic or additive activities, cross-titrating rLIGHT together with rTL1A and measure the extent of cell division and growth. The inventors also test if co-operation is at the level of the receptors (e.g. TL1A enhances expression of the LIGHT receptors).

airways of naïve mice [4] = assay: Injection of recombinant LIGHT / TL1A into the airways of naïve mice: airway remodeling; type: in vivo, mouse; conditions: for airway remodeling (accumulation of collagen, trichrome): 10 μg intratracheally on two consecutive days, day 3, rLIGHT in DR3−/− mice, rTL1A in LIGHT−/− mice; for remodeling in mice lacking T cells and ILCs: RAG and RAGγc−/− mice; for fibrosis and remodeling after injection of the recombinant protein alone (collagen, αSMA / smooth muscle, airway hyperresponsiveness): naïve mice, into the airways (or skin)
Method: Naïve mice were injected with PBS or 10 μg rLIGHT or rTL1A intratracheally on two consecutive days. On day 3, accumulation of collagen was analyzed in the airways with trichrome staining. (FIG. 3A) rLIGHT was injected into DR3−/− mice, or rTL1A into LIGHT−/− mice. (FIG. 3B) rLIGHT was combined with rTL1A (5 μg each), and the extent of collagen deposition scored as well as the extent of inflammation scored. (FIG. 3C) rLIGHT and rTL1A were injected into RAG−/− mice.
The inventors furthered these observations by testing whether LIGHT and TL1A could induce fibrosis and remodeling independently of other inflammatory activity, and of each other, by injecting the recombinant proteins into naïve mice. […] Moreover, the effects of LIGHT and TL1A were not reliant on the other cytokine shown by injection of the proteins into the respective knockout animals.

[5] = test system: normal human bronchial epithelial cells (HBE); assay: Human bronchial epithelial cells (HBE) stimulated with rLIGHT or rTL1A; type: cell-based; conditions: for periostin and TSLP expression (IF staining): 48 hrs
Description: HBE were stimulated with rLIGHT without (black bars) or with (gray bars) budesonide. Data are mean fold increase in mRNA over unstimulated cells after 3 days, measured by RT-PCR. Steroid sensitivity was arbitrarily set at >75% inhibition of the LIGHT-induced response, indicated to the left of the thick dotted lines.
HBE were stimulated with rLIGHT (left) or rTL1A (right) for 48 hrs and expression of periostin and TSLP examined by IF staining.

lung fibroblasts = assay: Lung fibroblasts stimulated with rTL1A or rLIGHT; type: cell-based
skin of naïve mice = assay: Subcutaneous / intradermal injection of recombinant LIGHT into mice: skin fibrosis and inflammation; type: in vivo, mouse
Description: Masson trichrome (collagen), alpha Smooth muscle actin (αSMA) and TSLP immunofluorescent staining of skin sections. The data is representative of 6 to 10 mice per group.
Diseases such as atopic dermatitis (AD) and psoriasis present with extensive tissue remodeling, features shared with diseases of the lungs, such as severe asthma. The inventors have shown that a genetic deficiency in the TNF superfamily molecule LIGHT (TNFSF14, CD258), and blocking LIGHT binding to its receptors, reduced remodeling in the lungs in mouse models of severe asthma and systemic sclerosis (1, 2). […] LIGHT interacts with the TNF superfamily receptors HVEM (herpesvirus entry mediator, TNFRSF14) and LTβR (lymphotoxin beta receptor, TNFRSF3), and TL1A with DR3 (TNFRSF25) (4-6). The studies disclosed herein investigate the combination use of LIGHT and TL1A to control skin tissue remodeling relevant to AD and psoriasis, directly driving deregulated activity in keratinocytes and dermal fibroblasts. In support, the inventors have reported that LIGHT-deficient mice were protected from developing skin inflammation in models of scleroderma (7) and allergen-induced AD (8). […] The inventors have observed that the absence of TL1A/DR3 interactions also markedly limits disease in the same models of AD and psoriasis, and that keratinocytes and fibroblasts co-express DR3 together with the receptors for LIGHT. The inventors determine that LIGHT and TL1A are effectors of skin pathology through driving epidermal hyperplasia and remodeling molecules such as collagen, periostin, and alpha smooth muscle actin in keratinocytes and/or fibroblasts. Through production of other factors such as TSLP, IL-33, and chemokines in these structural cells, LIGHT and TL1A maintain disease through orchestrating immune inflammatory cells in the skin.

dermal fibroblasts = assay: Dermal fibroblasts stimulated with rLIGHT; type: cell-based, human; conditions: preliminary studies
Description: LIGHT and TL1A synergistic in driving proliferation and inflammatory activity in dermal fibroblasts: The inventors determine inflammatory events that are triggered by LIGHT and TL1A in normal human dermal fibroblasts, using cells from a minimum of 4 donors, with kinetic analyses. The inventors find that both LIGHT and TL1A induce fibroblast proliferation, and may have differential abilities to induce myofibroblast differentiation. […] The inventors also test a range of inflammatory factors relevant to AD or psoriasis that have receptors on fibroblasts (e.g. LIGHT, IL-13, TGF-β, FGF, TNF, IL-17) to determine if they can promote DR3.

Molecule: rTL1A: recombinant TL1A (TNFSF15) protein [reference compound]
- αSMA expression in airways (airways of naïve mice [1]): upregulated
- collagen 13 and periostin protein and mRNA [2]: promoting collagen 13 and periostin
- proliferation of HAF (thymidine incorporation) ([2]; protein alone): induced proliferation
- proliferation of HAF in combination with TGF-β ([2]; with TGF-β): augmented by TGF-β
- αSMA mRNA in combination with TGF-β ([2]; with TGF-β): enhanced TGF-β driven αSMA
- NF-κB activation (p-p65/RelA) [3]: enhanced NF-κB activation
- NF-κB activation (p-p65/RelA) ([3]; listed as TL1A): induce NF-κB activation
- airway remodeling (accumulation of collagen, trichrome) (airways of naïve mice [4]): promote airway remodeling
- remodeling in mice lacking T cells and ILCs (airways of naïve mice [4]): induced remodeling
- fibrosis and remodeling after injection of the recombinant protein alone (collagen, αSMA / smooth muscle, airway hyperresponsiveness) (airways of naïve mice [4]; listed as TL1A): substantial collagen deposition and αSMA accumulation; also recorded: induced a fibroproliferative syndrome
- fibrosis and remodeling after injection of the recombinant protein alone (collagen, αSMA / smooth muscle, airway hyperresponsiveness) (airways of naïve mice [4]; listed as recombinant TL1A): rapidly promotes smooth muscle alterations, collagen deposition, and airway hyperresponsiveness
- periostin and TSLP expression (IF staining) [5]: promotes fibrotic activity
- periostin and TSLP expression (IF staining) ([5]; listed as TL1A): upregulated
- periostin and collagen in lung fibroblasts (lung fibroblasts; protein alone): induced periostin and collagen
- proliferation of lung fibroblasts (lung fibroblasts; protein alone): induced proliferation
- αSMA in lung fibroblasts (lung fibroblasts; protein alone): not αSMA
- proliferation and αSMA together with TGF (lung fibroblasts; with TGF-α as printed): synergized with TGF-α

B1: rLIGHT: recombinant LIGHT (TNFSF14) protein (protein)
chain: DGPAGSWEQLIQERRSHEVNPAAHLTGANSSLTGSGGPLLWETQLGLAFLRGLSYHDGALVVTKAGYYYIYSKVQLGGVGCPLGLASTITHGLYKRTPRYPEELELLVSQQSPCGRATSSSRVWWDSSFLGGVVHLEAGEKVVVRVLDERLVRLRDGTRSYFGAFMV
- αSMA expression in airways (airways of naïve mice [1]): upregulated
- collagen 13 and periostin protein and mRNA [2]: the former shared with LIGHT but not the latter
- myofibroblast differentiation (upregulation of αSMA mRNA) ([2]; protein alone): cannot drive myofibroblast differentiation
- proliferation of HAF (thymidine incorporation) ([2]; protein alone): promote proliferation
- adhesion molecules, chemokines, cytokines and metalloproteases mRNA ([2]; through the LTβR, siRNA knockdown): induced
- skin fibrosis and remodeling (trichrome, αSMA, TSLP staining) (skin of naïve mice; WT mice, intradermal injection, 20 μg/mouse vs PBS): induces scleroderma; also recorded: induces skin fibrosis and remodeling
- cytokines and chemokines induced in vivo (skin of naïve mice; injected s.c. into mice): induced the cytokines IL-33 and IL-25; also recorded: inducing several chemokines
- skin disease features after subcutaneous injection (skin of naïve mice; naïve mice, subcutaneous injection): induced features of AD, scleroderma, and psoriasis
- induction of TSLP and periostin from keratinocytes [3]: induce molecules from keratinocytes
- proliferation/hyperplasia of human keratinocytes ([3]; via both HVEM and LTβR): induce proliferation/hyperplasia
- airway remodeling (accumulation of collagen, trichrome) (airways of naïve mice [4]): promote airway remodeling
- remodeling in mice lacking T cells and ILCs (airways of naïve mice [4]): induced remodeling
- fibrosis and remodeling after injection of the recombinant protein alone (collagen, αSMA / smooth muscle, airway hyperresponsiveness) (airways of naïve mice [4]): reproduce this fibrotic activity
- fibrosis and remodeling after injection of the recombinant protein alone (collagen, αSMA / smooth muscle, airway hyperresponsiveness) (airways of naïve mice [4]; listed as LIGHT): rapidly promotes smooth muscle alterations, collagen deposition, and airway hyperresponsiveness; also recorded: substantial collagen deposition and αSMA accumulation; also recorded: increases the accumulation of collagen and alpha-SMA; also recorded: induced a fibroproliferative syndrome
- periostin and TSLP expression (IF staining) [5]: upregulated
- expression of adhesion molecules, proteinases, cytokines and chemokines (mRNA, RT-PCR), steroid sensitivity ([5]; 3 days, without or with budesonide): induce expression; also recorded: promotes steroid-resistant responses
- chemokines (CCL5, CCL20 CXCL5 CXCL11) in lung fibroblasts (lung fibroblasts): upregulated some chemokines
- TSLP, periostin and αSMA expression (dermal fibroblasts): upregulated TSLP, periostin, and αSMA
